Assay results from patent US20110243962A1 (GENEURO, published 2011).

T1: MSRV complete ENV protein (ENV-T), recombinant from E. coli (MSRV (Multiple Sclerosis associated …))
T1 construct: also called ENV-T 7A; His-ENV-T
T1 chain: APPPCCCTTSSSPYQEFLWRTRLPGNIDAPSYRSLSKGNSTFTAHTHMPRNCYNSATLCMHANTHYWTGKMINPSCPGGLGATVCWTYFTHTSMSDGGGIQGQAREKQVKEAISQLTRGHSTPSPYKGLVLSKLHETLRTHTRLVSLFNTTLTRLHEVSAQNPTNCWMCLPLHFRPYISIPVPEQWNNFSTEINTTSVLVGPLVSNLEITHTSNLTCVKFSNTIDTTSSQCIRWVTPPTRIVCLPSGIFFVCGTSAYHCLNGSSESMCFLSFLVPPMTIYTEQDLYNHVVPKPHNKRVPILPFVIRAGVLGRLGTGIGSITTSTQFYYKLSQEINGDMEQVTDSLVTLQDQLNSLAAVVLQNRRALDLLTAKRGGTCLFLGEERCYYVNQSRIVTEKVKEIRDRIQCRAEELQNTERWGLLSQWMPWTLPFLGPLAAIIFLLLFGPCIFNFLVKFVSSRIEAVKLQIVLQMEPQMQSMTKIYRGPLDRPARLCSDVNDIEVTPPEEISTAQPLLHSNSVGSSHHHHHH

T2: MSRV ENV surface domain fragment (ENV-SU), recombinant from E. coli (MSRV (Multiple Sclerosis associated …))
T2 chain: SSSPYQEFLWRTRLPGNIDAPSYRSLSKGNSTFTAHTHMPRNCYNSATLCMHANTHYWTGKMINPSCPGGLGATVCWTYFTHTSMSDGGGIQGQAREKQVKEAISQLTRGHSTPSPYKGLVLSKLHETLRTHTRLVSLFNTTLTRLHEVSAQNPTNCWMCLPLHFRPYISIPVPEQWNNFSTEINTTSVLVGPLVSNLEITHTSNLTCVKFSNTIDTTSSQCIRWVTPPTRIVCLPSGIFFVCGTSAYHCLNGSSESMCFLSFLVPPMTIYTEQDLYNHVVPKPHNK


Legend:
[1] = molecular target: T1, MSRV complete ENV protein (ENV-T), …; assay: ELISA; coated ENV-T 7A 0.5; ligand 1 microgram
Experimental: (§1) II-1d Direct ELISA on Microplates Coated with ENV Antigen (ENV-T or ENV-SU as Described Above) [0159] Microwells were coated with 100 μl per well of ENV antigen diluted in 50 mM Sodium Bicarbonate, pH 9.6. Plate were sealed and incubated 2 hours at 37° C. under light agitation. [0160] Microwells were washed 4 times with 250 μl per well of PBS (Phosphate Buffer Saline). After the last, plates were inverted and blotted on absorbent paper to remove any residual buffer. [0161] 100 μl per well of detection antibody according to the present invention (GNbAC1 or its Fab fragment) diluted in PBS+BSA 1% (PBS with 1% of Bovine Serum Albumin) were added. Plate were sealed and incubated 1 hour at room temperature under light agitation. […] Microwells were washed 4 times with 250 μl per well of PBS. After the last, plates were inverted and blotted on absorbent paper to remove any residual buffer. [0163] […] Plate were sealed and incubated 1 hour at room temperature under light agitation. [0164] Microwells were washed 6 times with 250 μl per well of PBS. After the last, plates were inverted and blotted on absorbent paper to remove any residual buffer. [0165] 100 μl par well of Substrate Solution (1 tablet of o-Phenylenediamine (OPD) diluted in 10 ml of 0.05M Phosphate Citrate Buffer pH5+10 μl H2O2 30%, prepared at the last moment) were added. Plates were incubated 30 min at room temperature in the dark. […] 50 μl per well of Stop Solution 2N H2SO₄ were added. [0167] The absorbance was read at 490 nm within 30 minutes of stopping reaction.
(§2) Env-T antigen is coated onto microtiter ELISA plate wells with serial dilutions ranging from 1 μg/ml to about 0.01 μg/ml.

[2] = molecular target: T1, MSRV complete ENV protein (ENV-T), …; assay: ELISA; ENV-T 7A 1 ug/ml coated; mAb 0.5 ug/ml
Experimental: (§3) Protocol: Incubation 2 h at 37° C. […] Revelation is made by adding OPD substrate and reading optic density with a spectrophotometer after 30 min (Washing steps with PBS are performed between every step).

[3] = molecular target: T2, MSRV ENV surface domain fragment …; assay: cell-based or functional assay
[4] = molecular target: T1, MSRV complete ENV protein (ENV-T), …; assay: ELISA; ENV 0.5 ug/ml coated; mAb 1 ug/ml
Experimental: as §3

[5] = molecular target: T1, MSRV complete ENV protein (ENV-T), …; assay: ELISA; coated ENV-T 7A 0.0156; ligand 1 microgram
Experimental: as §1, §2

[6] = molecular target: T1, MSRV complete ENV protein (ENV-T), …; assay: ELISA; ENV 0.0078 ug/ml coated; mAb 1 ug/ml
Experimental: as §3

[7] = molecular target: T1, MSRV complete ENV protein (ENV-T), …; assay: ELISA; coated ENV-T 7A 0.0625; ligand 1 microgram
Experimental: as §1, §2

[8] = molecular target: T1, MSRV complete ENV protein (ENV-T), …; assay: ELISA; ENV-T 7A 1 ug/ml coated; mAb 0.0078 ug/ml
Experimental: as §3

[9] = molecular target: T1, MSRV complete ENV protein (ENV-T), …; assay: ELISA; ENV 0.0625 ug/ml coated; mAb 1 ug/ml
Experimental: as §3

[10] = molecular target: T1, MSRV complete ENV protein (ENV-T), …; assay: ELISA; ENV 0.0156 ug/ml coated; mAb 1 ug/ml
Experimental: as §3

[11] = molecular target: T1, MSRV complete ENV protein (ENV-T), …; assay: ELISA; ENV 0.125 ug/ml coated; mAb 1 ug/ml
Experimental: as §3

[12] = molecular target: T1, MSRV complete ENV protein (ENV-T), …; assay: ELISA; ENV-T 7A 1 ug/ml coated; mAb 0.125 ug/ml
Experimental: as §3

[13] = molecular target: T1, MSRV complete ENV protein (ENV-T), …; assay: ELISA; ENV 0.03125 ug/ml coated; mAb 1 ug/ml
Experimental: as §3

| Binder | optical density [1] | optic density [2] | IFN-gamma Inhibition (%) [3] | IFN-gamma Response (%) [3] | IFN-gamma pg/ml, PBMC 72 h [3] | IL-6 pg/ml, PBMC 72 h [3] | IL-6 Inhibition (%) [3] | IL-6 Response (%) [3] | optic density [4] | optical density [5] | optic density [6] | optical density [7] | optic density [8] | optic density [9] | optic density [10] | optic density [11] | optic density [12] | optic density [13] |
| --- | --- | --- | --- | --- | --- | --- | --- | --- | --- | --- | --- | --- | --- | --- | --- | --- | --- | --- |
| GNbAC1 murine monoclonal antibody (IgG1/kappa) (antibody, V domains shown, Murine IgG1/kappa from hybridoma; also called murine IgG1; muIgG) VH: QVQLQQSGAELVRPGAPVTLSCKASGYTFTDYEMHWVKQTPVHGLEWIGAVAPETGGTAYNQKFKGKATLTAAKSSSTAYMELRSLTSEDSAVYYCTSTVVPFAYWGQGTLVTVSA VL: QIVLTQSPAIMSASPGEKVTISCSASSSVSYMYWYQQKPGSSPKAWIYRTSNLASGVPGRFSGSGSGTSYSLTISSMEAEDAATYYCQQYQSLPLTFGSGTKLEIK | 2.9 OD | 1.85 OD | 52% | 48% | 270 pg/mL | 42200 pg/mL | 52% | 48% | 1.87 OD | 1.3 OD | 0.111 OD | 1.56 OD | 0.13 OD | 0.837 OD | 0.186 OD | 0.975 OD | 0.945 OD | 0.367 OD |
| Chimeric GNb AC1 IgG1 (human IgG1 constant regions with murine VH and VL) (antibody, V domains shown, Human IgG1 heavy constant region and human kappa constant region, made in CHO cells; also called GNbAC1 chimeric IgG1; Ligand in human IgG1) VH: QVQLQQSGAELVRPGAPVTLSCKASGYTFTDYEMHWVKQTPVHGLEWIGAVAPETGGTAYNQKFKGKATLTAAKSSSTAYMELRSLTSEDSAVYYCTSTVVPFAYWGQGTLVTVSA VL: QIVLTQSPAIMSASPGEKVTISCSASSSVSYMYWYQQKPGSSPKAWIYRTSNLASGVPGRFSGSGSGTSYSLTISSMEAEDAATYYCQQYQSLPLTFGSGTKLEIK | 3 OD | 2.54 OD | -9% | 109% | 606 pg/mL | 32900 pg/mL | 63% | 37% | 2.53 OD | 1.26 OD | 0.642 OD | 1.8 OD | 0.85 OD | 1.85 OD | 0.888 OD | 1.82 OD | 2.44 OD | 1.6 OD |
| Chimeric GNb AC1 IgG4 (human IgG4 constant regions with murine VH and VL) (antibody, V domains shown, also called GNbAC1 chimeric IgG4; GNbAC1-IgC4) VH: QVQLQQSGAELVRPGASVTLSCKASGYTFTDYEMHWVKQTPVHGLEWIGAVAPETGGTAYNQKFKGKATLTAAKSSSTAYMELRSLTSEDSAVYYCTSTVVPFAYWGQGTLVTVSA VL: QIVLTQSPAIMSASPGEKVTISCSASSSVSYMYWYQQKPGSSPKAWIYRTSNLASGVPGRFSGSGSGTSYSLTISSMEAEDAATYYCQQYQSLPLTFGSGTKLEIKR | 2.89 OD | 2.49 OD | 43% | 57% | 318 pg/mL | 53000 pg/mL | 40% | 60% | 2.26 OD | 1.02 OD | 0.313 OD | 1.52 OD | 0.474 OD | 1.55 OD | 0.71 OD | 1.56 OD | 1.81 OD | 1.09 OD |
